The assay has as its target T1, cyclophilin B (GenBank Accession No. M60857) (UniProt P23284 34-216, limits assumed).
T1 construct: Yeast two-hybrid fusion; also called CYC-B
Put plainly: yeast matrix mating test (two-hybrid), growth on selective medium. As to the method: Briefly, cells were grown until mid-to-late log phase on media that selected for the presence of the appropriate plasmids. The two mating strains, alpha and a, were then, diluted in YAPD media, filtered onto nitrocellulose membranes, and incubated at 30 degrees Celsius for 6-8 hours. The cells were then transferred to media selective for the desired diploids, i.e., yeast harboring reporter genes for beta-galactosidase, uracil auxotrophy, and histidine auxotrophy, and expression of the vectors encoding the bait and prey. The mating products were plated on SC (synthetic complete) (Sambrook et al., 1989, A Laboratory Manual, 2nd Ed., Cold Spring Harbor Press, New York) media lacking adenine and lysine (to select for successful mating), leucine and tryptophan (to select for expression of genes encoded by both plasmids), and uracil and histidine (to select for protein interactions). This medium is herein referred to as SCS medium, for SC Selective medium.
To test for the specificity of p27(Kip1):FKBP-12 interaction, two general tests were first performed. In the first instance, YULH cells expressing FKBP-12 were created and plated on SC (synthetic complete) −Ura plates, grown for 1-2 days, and examined for growth. […]

T1 sequence (P23284 34-216 limits assumed, one chain of several): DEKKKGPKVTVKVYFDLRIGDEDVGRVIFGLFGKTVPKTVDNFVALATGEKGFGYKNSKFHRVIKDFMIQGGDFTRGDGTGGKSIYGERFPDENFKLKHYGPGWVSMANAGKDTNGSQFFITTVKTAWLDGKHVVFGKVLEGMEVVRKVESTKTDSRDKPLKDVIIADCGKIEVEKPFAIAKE

B1: p27(Kip1) (other)
chain: RDLEKHCRDMEEASQRKWNFDFQNHKPLEGKYEWQEVEKGSLPEFYYRPPRPPKGACKVPAQESQDVSGSRPAAPLIGAPANSEDTHLVDPKTDPSDSQTGLAEQCAGIRKRPATDDSSTQNKRANRTEENVSDGSPNAGSVEQTPKKPGLRRRQT
notes: Yeast two-hybrid fusion expressed in yeast; also called p27(Kip1) bait
Turning to B1, the binding result is “no binding”.

The values are drawn from patent US20030023034A1 (published 2003).
